Values belong to the substance of their own block, whether it stands above or below them.
Tests used:
[1] = biological target: PEX19-His, full-length (T. brucei); experiment: AlphaScreen or HTRF
[2] = biological target: PEX19-His 1 to 50 (T. brucei); experiment: AlphaScreen or HTRF
[3] = biological target: TbPEX38 (65-134) (T. brucei); experiment: ITC; 40 µM TbPEX38 titrated with 440 µM TbPEX19; triplicates; 25°C; 20 mM Tris pH 7.5, 50 mM NaCl; one-site binding model; MicroCal PEAQ-ITC
[4] = biological target: PEX38_(65–134) (T. brucei); experiment: ITC; titration of PEX38 with PEX19; technical triplicates
[5] = biological target: PEX19-His, full-length (T. brucei); experiment: AlphaScreen or HTRF; AlphaScreen displacement assay: equimolar PEX19-His and GST-PEX3Δ1-44 (30 nM), increasing amounts of untagged PEX38

Substance: GST-PEX3Δ1-44 (domain or fragment)
- other [1]: 30 fold

Substance: untagged PEX38, full-length (natural protein)
- IC50 [5]: 0.95 µM

Other lines, results leading:

- other [2]: 10 fold
Substance: GST-PEX38, full-length (natural protein)

- Kd [3]: 2.89 µM
Substance: TbPEX19 (1-50-SGGY) (domain or fragment)

- Kd [4]: 3 µM
Substance: PEX19_(1–50) with a C-terminal SGGY extension (domain or fragment)

- IC50 [5]: 0.446 µM
Substance: PEX38_(65–134) (domain or fragment)

Reference: paper PMC12956874
